Consider 43 molecules from patent US20030114404, “Vascular endothelial growth factor (VEGF) nucleic acid ligand complexes” (Gilead Sciences, Inc., published 2003).

Sequences and labels used below:
B1: VP40.4 (ssRNA)
RNA: GGGAGGACGAUGCGGGAAGAAUUGAUGUUGUAUUGUCCUUCCGAUUUCCUGCCGUCAGACGACUCGCCCGA
modifications: 2'-F pyrimidines
B2: VP30.16 (ssRNA)
RNA: GGGAGGACGAUGCGGAUGAUCGCGUAGGAAGUAUUGGAAGGCCCUCAGACGACUCGCCCGA
modifications: 2'-F pyrimidines
B3: VP40.9 (ssRNA)
RNA: GGGAGGACGAUGCGGGAGCAGAACCGAUAGAAGAAUUGGACGCUCAGCUCCGGGUCAGACGACUCGCCCGA
modifications: 2'-F pyrimidines
B4: VT30.11 (ssRNA)
RNA: GGGAGGACGAUGCGGAAUCAGUGAAUGCUUAUAGCUCCCGCGUCCUCAGACGACUCGCCCGA
modifications: 2'-F pyrimidines
B5: VT30.12 (ssRNA)
RNA: GGGAGGACGAUGCGGUCUUUGGGUUUUUGCCAACGGUUUUCGCUCAGACGACUCGCCCGA
modifications: 2'-F pyrimidines
B6: VT30.44 (ssRNA)
RNA: GGGAGGACGAUGCGGAAUCAGUGAAUGCUUAUACAUCCGCUCGGUCAGACGACUCGCCCGA
modifications: 2'-F pyrimidines
B7: VT30.18 (ssRNA)
RNA: GGGAGGACGAUGCGGUUCAGAAUUGGCUGCGAUCCUUUUCCCCCUCAGACGACUCGCCCGA
modifications: 2'-F pyrimidines
B8: VT30.2 (ssRNA)
RNA: GGGAGGACGAUGCGGAUCAGUGAAUGCUUAUAGACCGCCUCCGUCAGACGACUCGCCCGA
modifications: 2'-F pyrimidines
B9: VP30.31 (ssRNA)
RNA: GGGAGGACGAUGCGGUAACCGAUUGAACUUCUUGGACGCUACCGUCAGACGACUCGCCCGA
modifications: 2'-F pyrimidines
B10: VP40.53 (ssRNA)
RNA: GGGAGGACGAUGCGGUGAGAGAAACGGAAGAAUUGGAUACGAUACUCAUCGCGCUCAGACGACUCGCCCGA
modifications: 2'-F pyrimidines
B11: VP30.13 (ssRNA)
RNA: GGGAGGACGAUGCGGGAUAACAGAAGAAUUGGUGAACAACGUGGUCAGACGACUCGCCCGA
modifications: 2'-F pyrimidines
B12: VP30.41 (ssRNA)
RNA: GGGAGGACGAUGCGGUAGGAAGUAUUGUAAGCGCCUCGUUUUCGCCAGACGACUCGCCCGA
modifications: 2'-F pyrimidines
B13: VT30.20 (ssRNA)
RNA: GGGAGGACGAUGCGGAAACGGAAGAAUUGGAUACCGCUACGUGUUCAGACGACUCGCCCGA
modifications: 2'-F pyrimidines
B14: VT30.21 (ssRNA)
RNA: GGGAGGACGAUGCGGAUCAGUGAAUGCUUAUAGACCGUAUUGCGUCAGACGACUCGCCCGA
modifications: 2'-F pyrimidines
B15: VP30.12 (ssRNA)
RNA: GGGAGGACGAUGCGGAAUACGGAAGAAUUGGAUACAUAUGCUCGUCAGACGACUCGCCCGA
modifications: 2'-F pyrimidines
B16: VP30.51 (ssRNA)
RNA: GGGAGGACGAUGCGGAGUUUUGGAAGAAUUGGAUGUUCCGAUCGUCAGACGACUCGCCCGA
modifications: 2'-F pyrimidines
B17: VP40.41 (ssRNA)
RNA: GGGAGGACGAUGCGGCAAAUUCAAGGUCGAGUUAUGCGUAGAUGUGGCUCCUGUGCAGACGACUCGCCCGA
modifications: 2'-F pyrimidines
B18: VP40.17 (ssRNA)
RNA: GGGAGGACGAUGCGGUGAACCGAUGGAAUCGCUUGGACGCUCAUCGCACGUUGCUCAGACGACUCGCCCGA
modifications: 2'-F pyrimidines
B19: VT30.9 (ssRNA)
RNA: GGGAGGACGAUGCGGUCAACCGGUUGAAUAUUUGGUCGCUGACCUCAGACGACUCGCCCGA
modifications: 2'-F pyrimidines
B20: VT30.27 (ssRNA)
RNA: GGGAGGACGAUGCGGGAUCACGGCUUUGCACGAUCUUCUUCUCCUCAGACGACUCGCCCGA
modifications: 2'-F pyrimidines
B21: VT30.41 (ssRNA)
RNA: GGGAGGACGAUGCGGCAGGGUGAAUGCCAAUGUACUUUUCGCGUCAGACGACUCGCCCGA
modifications: 2'-F pyrimidines
B22: VP30.54 (ssRNA)
RNA: GGGAGGACGAUGCGGAAGAAACGGAAGAAUUGGAGACACGCUCGUCAGACGACUCGCCCGA
modifications: 2'-F pyrimidines
B23: VT30.53 (ssRNA)
RNA: B22 RNA with A17G, G18C, A19U, G35A, C39A, G40C, U42G
modifications: 2'-F pyrimidines
B24: VP30.19 (ssRNA)
RNA: GGGAGGACGAUGCGGCACUUUAGAAGAAUUGAAUUUCCCGCUGGUCAGACGACUCGCCCGA
modifications: 2'-F pyrimidines
B25: VP30.7 (ssRNA)
RNA: GGGAGGACGAUGCGGAAGAAUUGGUCAUCGUCGUCUCCGCCUCCCCAGACGACUCGCCCGA
modifications: 2'-F pyrimidines
B26: VT30.4 (ssRNA)
RNA: GGGAGGACGAUGCGGCUUAAGUUUUGGAAGAAUUGAAUACUGGGUCAGACGACUCGCCCGA
modifications: 2'-F pyrimidines
B27: VT30.7 (ssRNA)
RNA: GGGAGGACGAUGCGGUAACCAGUGGAAGAAUUGGCUGCUAUCCUCAGACGACUCGCCCGA
modifications: 2'-F pyrimidines
B28: VP40.43 (ssRNA)
RNA: GGGAGGACGAUGCGGACAGAAGAAUUGGGCUUCGCAUUAUCCUCUGUCAGCCGCCAGACGACUCGCCCGA
modifications: 2'-F pyrimidines
B29: VP40.44 (ssRNA)
RNA: GGGAGGACGAUGCGGAUCUGUUGAACUGGGUUUUGCCGACGGUUACGCUUUUGCUCAGACGACUCGCCCGA
modifications: 2'-F pyrimidines
B30: VT30.38 (ssRNA)
RNA: GGGAGGACGAUGCGGAGCGGUAUUCUGUUCGGUCGUUUUCCUCCUCAGACGACUCGCCCGA
modifications: 2'-F pyrimidines
B31: VT30.13 (ssRNA)
RNA: GGGAGGACGAUGCGGCAGGAUUUUGGAAGAAUUGGAUAUUGGCCGCAGACGACUCGCCCGA
modifications: 2'-F pyrimidines
B32: VT30.10 (ssRNA)
RNA: GGGAGGACGAUGCGGAACGGAAGAAUUGGAUACGUAGCAUGCGUCAGACGACUCGCCCGA
modifications: 2'-F pyrimidines
B33: VT30.15 (ssRNA)
RNA: GGGAGGACGAUGCGGAACCAGUGAAUGCUUAUAAGACUGCUCGUCAGACGACUCGCCCGA
modifications: 2'-F pyrimidines
B34: VP40.47 (ssRNA)
RNA: GGGAGGACGAUGCGGCAGUUAAUUAAUUUGAGUUGUGAUGUGUGUCGUUAUGGGCCAGACGACUCGCCCGA
modifications: 2'-F pyrimidines
B35: VT30.23 (ssRNA)
RNA: GGGAGGACGAUGCGGGAUCACGAUACUUGACGAUUUUCCUCUCCUCAGACGACUCGCCCGA
modifications: 2'-F pyrimidines
B36: VT30.1 (ssRNA)
RNA: GGGAGGACGAUGCGGAACUAGUGAAUGCUUAUACGACCGUGUUGUCAGACGACUCGCCCGA
modifications: 2'-F pyrimidines
B37: VT30.29 (ssRNA)
RNA: B6 RNA with C34G, A35C, U41G, C42U
modifications: 2'-F pyrimidines
B38: VP30.43 (ssRNA)
RNA: GGGAGGACGAUGCGGUAACCGAAUUGAAGUUAUUGGACGCUACCUCAGACGACUCGCCCGA
modifications: 2'-F pyrimidines
B39: VT30.40 (ssRNA)
RNA: GGGAGGACGAUGCGGAUUUGGAUGCAUGUCAAGGCGUUUUGCCCUCAGACGACUCGCCCGA
modifications: 2'-F pyrimidines
B40: VT30.28 (ssRNA)
RNA: GGGAGGACGAUGCGGAGAAUCAGUGAAUGCUUAUAAACCUCGUGUCAGACGACUCGCCCGA
modifications: 2'-F pyrimidines
B41: VT30.8 (ssRNA)
RNA: GGGAGGACGAUGCGGUUGAUCGAUUUUCCUGGCGUCCUUAUGGGUCAGACGACUCGCCCGA
modifications: 2'-F pyrimidines
B42: VT30.52 (ssRNA)
RNA: GGGAGGACGAUGCGGAAGAAUUGAGCAUUCCUUCUCCUUGUGCCUCAGACGACUCGCCCGA
modifications: 2'-F pyrimidines
B43: VP40.14 (ssRNA)
RNA: GGGAGGACGAUGCGGGUACCAGAAUGAGCAACCGAAUGAAGAACUGGACGCUGCUCAGACGACUCGCCCGA
modifications: 2'-F pyrimidines

Substitutions are numbered along the chain they refer to.

Sequence of VEGF165 (P15692 other isoform, or with tags, fused parts or gaps): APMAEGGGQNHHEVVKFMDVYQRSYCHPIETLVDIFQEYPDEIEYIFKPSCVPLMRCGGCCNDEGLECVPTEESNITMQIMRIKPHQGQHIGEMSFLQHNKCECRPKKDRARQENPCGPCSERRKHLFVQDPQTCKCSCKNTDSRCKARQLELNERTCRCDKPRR

This data set concerns the target VEGF165 (Homo sapiens, UniProt P15692-4 P15692-4:27-191). Description: filter; 37 C. The settings on record: tags: carrier-free, Sf 21 insect cell expressed, R & D Systems; chain copies: 2 (inferred). How it is done: Nucleic Acid Ligands radiolabeled during transcription by incorporation of α-[³²P]-labeled NTPs, or after synthesis using γ-[³²P]-ATP and T4 polynucleotide kinase, were incubated in low concentration (between 20 and 70 pM) with varying concentrations of VEGF or other growth factors at 37° C. for 15 minutes. Incubations were in TBS, PBS, or HEPES-buffered saline (HBS), pH 7.4, with or without the addition of supplemental divalent cations. Samples were passed through prewashed 0.45 μ Type HA filters (Millipore) followed by a 5-10 ml wash with binding buffer. Filters were immersed in scintillant and counted to quantitate the amount of protein-bound RNA retained by each filter. The equilibrium dissociation constant (KD) of Nucleic Acid Ligand binding to a specific protein was calculated from the data points as described in Green et al. (1996) Biochem. 35: 14413-14424.
On to B1, for which the affinity, expressed as Kd, was 0.2 nM.
For B2 the value was 0.006 nM; for B3, 0.03 nM.
For B4 the value was 0.004 nM; for B5, 0.009 nM.
For B6 the value was 0.01 nM; for B7, 0.004 nM.
In turn, B8 yielded a Kd of 0.002 nM.
In the case of B9 it was 0.006 nM; in that of B10, 0.008 nM; in that of B11, 0.01 nM.
B12 showed a Kd of 0.007 nM.
In the case of B13 it was 0.004 nM; in that of B14, 0.006 nM.
Take B15: the Kd stood at 0.007 nM.
For B16, the dissociation constant (Kd) turned out to be 0.09 nM. Compared with the last molecule, the Kd is about 13-fold higher.
Molecule B17 registered a dissociation constant Kd of 11 nM.
For B18 the value was 0.01 nM; for B19, 0.03 nM.
In the case of B20 it was 0.12 nM; in that of B21, 0.04 nM; in that of B22, 0.01 nM.
For B23, the dissociation constant Kd worked out at 0.01 nM.
In the case of B24 it was 0.009 nM; in that of B25, 3 nM.
In the case of B26 it was 0.02 nM; in that of B27, 0.01 nM; in that of B28, 0.03 nM.
The molecule B29 yielded a Kd of 0.043 nM.
For B30 the value was 0.005 nM; for B31, 0.01 nM; for B32, 0.002 nM.
In the case of B33 it was 0.003 nM.
B34 returned a Kd of 0.096 nM.
In turn, B35 registered a dissociation constant Kd of 0.019 nM.
In the case of B36 it was 0.01 nM; in that of B37, 0.01 nM; in that of B38, 0.005 nM.
B39: the equilibrium dissociation constant (Kd) was 0.03 nM.
In the case of B40 it was 0.06 nM; in that of B41, 0.034 nM.
For B42 the value was 9 nM; for B43, 0.008 nM.
